Test results taken from US7122374.

Legend:
Assay in all cases: ELISA, peptide coated at 1 µg/mL, mAb4G8 diluted 1000 times, HRP anti-mouse Igs
[1] = target: AβN3E-42
[2] = target: Aβ1-40
[3] = target: AβN3pE-42
Sequence of AβN3pE-42 (peptide, as listed by the source): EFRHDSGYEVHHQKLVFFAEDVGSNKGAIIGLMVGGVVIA

Sequence of Aβ1-40 (peptide, as listed by the source): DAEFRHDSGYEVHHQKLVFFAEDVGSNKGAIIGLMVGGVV

- absorbance at 450 nm [1]: 1.39 A450
- absorbance at 450 nm [2]: 1.57 A450
- absorbance at 450 nm [3]: 2.27 A450
Substance: monoclonal antibody mAb4G8 (SENETEC Inc)
